Test results from publication PMC8091981 (Genes & Development, 2021).

Molecular target: T1, Spt6-YW-FLAG (Y255A, W257A) (S. cerevisiae, UniProt P23615 1-1451, Y255A | W257A)
T1 sequence (looked up): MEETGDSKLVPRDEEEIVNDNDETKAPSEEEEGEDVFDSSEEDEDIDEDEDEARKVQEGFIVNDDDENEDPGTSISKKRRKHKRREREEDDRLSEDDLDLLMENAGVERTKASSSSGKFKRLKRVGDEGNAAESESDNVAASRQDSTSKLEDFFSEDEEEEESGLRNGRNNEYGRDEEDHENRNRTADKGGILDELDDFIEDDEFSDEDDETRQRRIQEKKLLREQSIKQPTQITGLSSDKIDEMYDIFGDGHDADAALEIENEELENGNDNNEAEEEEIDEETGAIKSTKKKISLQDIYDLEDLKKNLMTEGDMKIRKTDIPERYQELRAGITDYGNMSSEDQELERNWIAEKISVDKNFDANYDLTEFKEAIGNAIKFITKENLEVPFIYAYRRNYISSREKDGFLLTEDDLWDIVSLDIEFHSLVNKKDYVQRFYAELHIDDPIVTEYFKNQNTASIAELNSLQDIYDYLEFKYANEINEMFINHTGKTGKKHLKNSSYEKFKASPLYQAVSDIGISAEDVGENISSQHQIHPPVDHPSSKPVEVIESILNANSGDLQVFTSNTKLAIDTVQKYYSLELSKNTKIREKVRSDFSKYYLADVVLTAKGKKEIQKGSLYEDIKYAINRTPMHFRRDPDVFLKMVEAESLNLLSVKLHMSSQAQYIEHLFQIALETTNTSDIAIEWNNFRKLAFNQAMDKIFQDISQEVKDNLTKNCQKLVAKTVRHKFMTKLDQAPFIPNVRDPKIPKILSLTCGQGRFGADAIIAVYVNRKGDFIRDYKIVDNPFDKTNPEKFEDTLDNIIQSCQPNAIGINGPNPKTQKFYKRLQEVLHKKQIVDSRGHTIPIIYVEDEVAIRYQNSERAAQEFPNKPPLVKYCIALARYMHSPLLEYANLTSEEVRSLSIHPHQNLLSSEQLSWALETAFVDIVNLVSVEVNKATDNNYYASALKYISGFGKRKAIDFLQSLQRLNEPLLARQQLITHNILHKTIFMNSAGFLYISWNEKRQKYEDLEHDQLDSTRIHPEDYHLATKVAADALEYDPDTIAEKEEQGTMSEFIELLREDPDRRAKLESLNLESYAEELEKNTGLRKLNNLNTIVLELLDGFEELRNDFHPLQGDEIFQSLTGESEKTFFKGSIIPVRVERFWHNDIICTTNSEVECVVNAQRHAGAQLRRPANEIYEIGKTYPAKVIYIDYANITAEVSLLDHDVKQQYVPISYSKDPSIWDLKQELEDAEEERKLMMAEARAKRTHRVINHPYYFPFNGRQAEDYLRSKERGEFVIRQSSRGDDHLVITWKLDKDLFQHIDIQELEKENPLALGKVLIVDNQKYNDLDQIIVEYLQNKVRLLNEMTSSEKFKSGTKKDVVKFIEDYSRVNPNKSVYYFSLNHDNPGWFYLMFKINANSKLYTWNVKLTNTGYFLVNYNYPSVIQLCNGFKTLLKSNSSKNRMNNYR
Experiment: co-IP

- fold decrease of co-IP against wild-type Spt6-FLAG: 20 fold
B1: Spn1 (natural protein, S. cerevisiae, UniProt Q06505 1-410, looked up)
chain: MSTADQEQPKVVEATPEDGTASSQKSTINAENENTKQNQSMEPQETSKGTSNDTKDPDNGEKNEEAAIDENSNVEAAERKRKHISTDFSDDDLEKEEHNDQSLQPTVENRASKDRDSSATPSSRQELEEKLDRILKKPKVRRTRRDEDDLEQYLDEKILRLKDEMNIAAQLDIDTLNKRIETGDTSLIAMQKVKLLPKVVSVLSKANLADTILDNNLLQSVRIWLEPLPDGSLPSFEIQKSLFAALNDLPVKTEHLKESGLGRVVIFYTKSKRVEAQLARLAEKLIAEWTRPIIGASDNYRDKRIMQLEFDSEKLRKKSVMDSAKNRKKKSKSGEDPTSRGSSVQTLYEQAAARRNRAAAPAQTTTDYKYAPVSNLSAVPTNARAVGVGSTLNNSEMYKRLTSRLNKKHK
